Data from the DeepSol protein solubility set.

Assay: soluble on expression in E. coli; label from the status in PepcDB or PDB records
For “MTTTPANVLASVDLGSNSFRLQICENNNGQLKVIDSFKQMVRFAAGLDEQKNLSAASQEQALDCLAKFGERLRGFRPEQVRAVATNTFRVAKNIADFLPKAEAALGFPIEIIAGREEARLIYTGVIHTLPPGGGKMLVIDIGGGSTEFVIGSTLNPDITESLPLGCVTYSLRFFQNKITAKDFQSAISAARNEIQRISKNMRREGWDFAVGTSGSAKSIRDVLAAEMPQEADITYKGMRALAERIIEAGSVKKAKFENLKPERIEVFAGGLAVMMAAFEEMKLDRMTVTEAALRDGVFYDLIGRGLNEDMRGQTVAEFQHRYHVSLNQAKRTAETAQTFMDSLCHAKNVTVQELALWQQYLGRAAALHEIGLDIAHTGYHKHSAYILENADMPGFSRKEQTILAQLVIGHRGDMKKMSGIIGTNEMLWYAVLSLRLAALFCRSRQDLSFPKNMQLRTDTESCGFILRIDREWLERHPLIADALEYESVQWQKINMPFKVEAV”, the “soluble on expression in E. coli” value was “not soluble”.
For “MKKLAILLVCAAMLASCNGLGGGSKDLKAENDSLLMELTQRNAELDEMMGTFNEVQEGFRKINAAESRVDLTRGTISENSATAKQQIASDIEFITKQMEENKAQIAKLQAMLKSSKNNSAQLKKAVESLTQELVAKTQRIEELQAELASKNIRIQELDAAVTGLTADKESLAAENEAKAKTVAEQDKAINSAWFVFGTKSELKTQKILEKGDVLKSADFNKDYFTQIDIRTTKEIKLYSKRAELLTTHPAKSYELVKDDKGQLTLKITNPKEFWSVSKYLVIQVK”, the “soluble on expression in E. coli” value was “not soluble”.
For “MAPKQPEKIENPPMASAPSSEKESGSTENEYGSSGEETNSSDDEHEEARDNVISTPLSFGQELVSFFKVENLTYLGIDEAKWIAYWDMVKDGPKKREVEKQLKKMLAMQMELFMMRTGFTKEVATVLFKQDNASSSGK”, the “soluble on expression in E. coli” value was “not soluble”.
For “MPSLAELTKSLSIAFENGDYAACEKLLPPIKIELIKNNLLIPDLSIQNDIYLNDLMITKRILEVGALASIQTFNFDSFENYFNQLKPYYFSNNHKLSESDKKSKLISLYLLNLLSQNNTTKFHSELQYLDKHIKNLEDDSLLSYPIKLDRWLMEGSYQKAWDLLQSGSQNISEFDSFTDILKSAIRDEIAKNTELSYDFLPLSNIKALLFFNNEKETEKFALERNWPIVNSKVYFNNQSKEKADYEDEMMHEEDQKTNIIEKAMDYAISIENIV”, the “soluble on expression in E. coli” value was “soluble”.
With “MHHHHHHENLYFQSNAMGSTRPIDGLTDEDIREILTRYKKIALVGASPKPERDANIVMKYLLEHGYDVYPVNPNYEEVLGRKCYPSVLDIPDKIEVVDLFVDPAKAWRFVVYAIKKGAKVVWFQYNTYYPLAARQAKEAGLIIVANRCMMREHERLLGEK” the “soluble on expression in E. coli” value was “soluble”.
With “MSLYIDGTFSYSLYRKICTDRSAVNKASNTQESSVAKPSIIKTSENPLQTIEVEVYDEYGEKLVKSIACERPLTVLLNWKEIVTLMTLGSRPEALVLGYLKNQSFISDPEALDSIIIDWETHSAAVVTRENIDHLEPALKKKTVTSGCGQGTMYGNVMKQLEHYQVPQQPIKQSQIYAALEALTHYNDTYKKAGAVHGCAICQEDRVLSFVEDVGRHNAVDTLAGEMWLNGMRGDDKIFYTTGRLTSEMVIKVAQMGIPVLLSRSGVTQMGLELAQRFGITTIARASGRRFHVYSGADKMVFDVKGHSEEAEGHHHHHH” the “soluble on expression in E. coli” value was “soluble”.
For “MGSDKIHHHHHHMKKAHVIVVGNEKGGTGKSTISMHLIVSLLDKGLSVGSIDIDARQATLSRYIGNRAARQDRAELNLPIPEHIPIPPSGDAQADCARLDEVFKDFAARHDVVVIDTPGSDHPMSRLGHSFADTLVTPLNDSLVDLDVLALVEPGTMKIRRPSHYAEMVWETKKTRAMRGEKAVVDWIVLRNRLSNLDARNKRDMEKLLAELSKRVGFRVIPGLGERVIYRSMFLEGLTLVDLKKKPLGFDFNMSHVAARQELRTLVDAIGLGLPATA”, the “soluble on expression in E. coli” value was “not soluble”.
For “MYNGYADVDDLHVYVYCGNTPELRLQELVADVKITIQPENEKSCCIKKFLSLKDNKFESIAMSADFGDFDEMVYNYAIDGKCTIEADITIIKEVGDARAKLRDFGEETRDVSDVVINVQNEKFHVSKMFLAAQSSHFKLLFKNSNDSEIALDGIIPEDFQNFLELLYGEPALTEDSVEGILQIAARFDVSTVIRKGEDFLLQKSEFSPEKKLQMSLKYNLENLKSKCLSEVKSVADIRSVLPKDIKEMDHSVMAELLEKSLGLQKT”, the “soluble on expression in E. coli” value was “not soluble”.
With “TDLVAVWDVALSDGVHKIEFEHGTTSGKRVVYVDGKEEIRKEWMFKLVGKETFYVGAAKTKATINIDAISGFAYEYTLEINGKSLKKYMEDRSKTTNTWVLHMDGENFRIVLEKDAMDVWCNGKKLETAGEFVDDGTETHFSIGNHDCYIKAVSSGKRKEGIIHTLIVD” the “soluble on expression in E. coli” value was “not soluble”.
For “MMKNFVCTTCGVQYAASVEEPVSCHICDEERQYVNPKGQSWTTLENLQTDDTYKNEIIKEENGLYSITTKPGFAIGQTAFVVKTESYRLLWDCITYLDETTITKIKELGGLDAIALSHPHYYSTQVEWAETFDVPIYIHEDDKEWVMRPSSRIIYWSGESLQLADGITVHRLGGHFSGGSVLHWEEGNDGKGILLTGDIIQVVADERWVSFMYSYPNLIPLPARKVEEMVNRVKPLQFNRLYNAFHRVVKENANEAVERSAERYIKAIEGKLFHT”, the “soluble on expression in E. coli” value was “not soluble”.
In the case of “MQPSFRIVADGTDVTQRLNDRLLKLTLLDKPGMESDSLTLRIDDRDGQVALPRRGAVLEVHLGYAGEPLMRMGRFTVDTLQWAGPPDCLTVTAKAGDMRGSGKTIRSGGWEGTTLAQVCRDVGARNGWRVECPLQVAIARVDQVNESDYHFVTRLARQYDCTAKLAEGMLMVLPRQSGQSATGRRIEPLVLGRADVGSFDVTFDDRSLMRTVKTRYQLPGSGEVKSVELKNPKAPATAMGEHVDRHLYTSRGEAEQAAKARLASFSRSSASVRLELPGRGDLFAERSLLLQGFKAGIDGEFLIDSVEHTYSSSGWTTVVQCNGGRGGKG”, the “soluble on expression in E. coli” value was “not soluble”.
With “MQRCDWVSQDPLYIAYHDNEWGVPETDSRKLFEMICLEGQQAGLSWITVLKKRENYRACFHQFDPIRIAAMQEEDVERLLQNTGIIRHRGKIQAIISNARAWLAMEQNGESFADFVWSFVDGQPQITQAASLDKIPTSTPASDALAKALKKRGFKFVGTTICYSFMQACGLVNDHITGCFCHPG” the “soluble on expression in E. coli” value was “soluble”.
For “MGSDKIHHHHHHMSKHQNDNPRVPHEAAPLRVLHVGPGQGQRGGIASVLAELSAQRARFRDAGVVVAIFETHGFQSMRSLLCFPLVDIPRFLFAVLKGVDLIHFHVSVRGSFYRKFLLYLLARLFGKRTIFHLHAGNFQDFWASNGPTTRKAVSRFIRGADAVVAVSSAIASELQGHQGVTRNLYVIGNTAYSAELAAGAALRDSSGGKRVDMTPYVAFAGRFTEGKGLDELLRAVAALNRRGLKVQLRLAGAGDMDRWTRAAIEYGVSDQVRFVGWLQGDAKLEFYRDAAVFCMPSHFEAFGISTLEAMFIGRPVIGTRVGGFLDLVEEGVTGYLVRCGDSHGLAERIRHLVERPELAHEMGRQAVSRALSRYSVDAIVSQYARCYRQVNGSRGA”, the “soluble on expression in E. coli” value was “not soluble”.
For “YDNLAHNLAVERGLTAGVLGSQGKTEIVQKLTQQRKKVDDAVNSLVQLNTPLISSSDSYDLLQDVQVQLNRLNQVRQGVDRLSPQIAPFGYYSNLNQLIIDNIDILIAQTQSRELGTLGDALISVIVMKERAGQARGALNGVFAKGSATSVLFSNIEGYIQSGDYASRKAQIAFPEQYRQSLQSHQSNPAWKKVEQVQQSFLNQSANLDNIQGPQATEWFPMATERIGLMNQLRNQMVDQMLSAA”, the “soluble on expression in E. coli” value was “not soluble”.
In the case of “MAHHHHHHMTAAERLRRSRDNAVHHPKPSAATSSTISPALALSSSNSSPSANAAVPIEISPPPPNQGAVMIRYSKQQLLSLRPAAIEHVMRGRVVDHPPFLKIPESFAPLLSLPFAMEYVNVDAAMQLVEHRSYASRPASSPPTSVARTEDLDDEAQARLYTCPVCAQGRLHSCTAIQHILQRTSRYFMSTKLGAALMQPALVVESLLQLALVFDAKQSSLRLRMLAEQSPRVVHLVEEYLCGEGYHLPLPPVTAHEDWAALNAMLRFDAIRDNKTRVITDLSKHWKKRRTQFEQFVYFFAFRDARPVRPAKNIITKSAKPGMVAMLTGDVPAMVLLHRLGFFIPPDYYWKVFPFLRQALGEGTLSYDVVRHLGLYLSSAQPADMYNPVEVPIHA”, the “soluble on expression in E. coli” value was “soluble”.
With “MSILVYDREHNFKKWYIYWIPKTKMLGVKDDKDVVYEKMCTLQERTDILKVSKSLVEEKWSSLFSESGLHIEEVCEKELVLTFALQRNITLERTELSGRFDECLYLEYLRLKTLTNVSPMKRKRTASTVEHVIRSDDIKPILAPKSDPVKKRTTRMAAKASGPEFDDE” the “soluble on expression in E. coli” value was “not soluble”.
In the case of “DMGESVKIIDLARQMITLSGLKPNTPEQPDGDIEILITGLRPGEKLYEELLIGDNVRKTGHPRIMTANETMLPWHELSALLDRIRAACDRYDQQAIRT”, the “soluble on expression in E. coli” value was “not soluble”.
With “MGSSHHHHHHSSGLVPRGSHMRIGMVCPYSFDVPGGVQSHVLQLAEVLRDAGHEVSVLAPASPHVKLPDYVVSGGKAVPIPYNGSVARLRFGPATHRKVKKWIAEGDFDVLHIHEPNAPSLSMLALQAAEGPIVATFHTSTTKSLTLSVFQGILRPYHEKIIGRIAVSDLARRWQMEALGSDAVEIPNGVDVASFADAPLLDGYPREGRTVLFLGRYDEPRKGMAVLLAALPKLVARFPDVEILIVGRGDEDELREQAGDLAGHLRFLGQVDDATKASAMRSADVYCAPHLGGESFGIVLVEAMAAGTAVVASDLDAFRRVLADGDAGRLVPVDDADGMAAALIGILEDDQLRAGYVARASERVHRYDWSVVSAQIMRVYETVSGAGIKVQVSGAANRDETAGESV” the “soluble on expression in E. coli” value was “soluble”.
For “MGSDKIHHHHHHVKRFDWYTEIHRLDAEADCRRITEILTTHEFPWDIEQALSLALYRTYAVPSIGQLLAETREFLDRTQRRSDDTALILTEIMRHGFEPGRGRDALRRMNQMHRSYDISNDDYLYVLSTFVVMPVRWINDLGYGWRRLTEHEITANTNYYRLLGKHMGIKEIPETYDEFYELFDSYEIAHFGYSEGGRAVSDATLRLMVDTVPRWQQPVFRKFTMALLDDRLIQAFRYDPPSRFWRTAAHLAMWLRAKIVRFMPPRVEPYRIENNPKIKSYPNGYDPRRIGTFPKGCPVPHDMVTIEIPETGARIPAPGQELAPQGQDARA”, the “soluble on expression in E. coli” value was “not soluble”.
For “MTNSIRIGTRKSPLALIHTNLVIQQIKQFFPDINCEIVPIITSGDLIQNKPLYDIGGKALFLKEIEQALLDKKIDLAVHSLKDVPGRMPEPLVIAAVLEREDPRDVFVCLKYKSIEELPQNAVIGSSAVRRKAFIQKIRPDLKVTVFRGNVDSRIKKLMTGEVDATILAYTGLKRLEVFNPEYCHLIEYSQMLPCIGQGVIAVEIRKDDNAMLEICNQINHLPTFELIKPERAFLEYLDANCRTPIAAYSQYLDANPRHLSKLAYREVLEGNTEALATAAYKSNRTDASTGLTYKLPLEVEFGKVSNIQTNFMLGNLDGSKITFHTETTNIKTSTEAGIKAAKMMLEAICK”, the “soluble on expression in E. coli” value was “soluble”.
With “MNVTVAPQDETLSARAGRVATIAAKHADDVDVTGRFPQEAVDALRRERLLGIQVPSSLGGEGASIQEIADICARLGQACSATAMIFAMHHIKLSSLVEHGVDSTWHPGFMRRVAGEQLLLGSATTEGGIGGNLRNSICAIEVEGDSCRLEKDATVISYGSNADAILITSRAHKDAAPADQVMTVFLKNQYTLEKTHVWDTLGMRGTCSDGFLFRGEAPAAQIFPKPFAEIAAQSMLASSHLLWSAVWYGIASDAVLRAQSFVRAAARKSPGTAPPGAIRLAEVSTKLQVVKSNIIAGIKAYEDTKSDPEKLMSMAFAVAMNNVKICSSETILEIIDHAMLVCGIMGYKNGTPYSLGRHLRDAHSARLMISNDRILGNSANLLLVHRQDTSLLG” the “soluble on expression in E. coli” value was “soluble”.
